Measured values from PMC314469, “Protein Interaction Networks by Proteome Peptide Scanning” (PLoS Biology, 2004).

B1: YGR133W 86-99 (peptide)
chain: SSYPMNPPKISFMQ
B2: YBR082C 59-72 (peptide)
chain: TDYPFKPPKISFTT
B3: YHR129C 114-127 (peptide)
chain: TEAPMNPLKNREQM
B4: YJR090C 50-63 (peptide)
chain: STRPQMPSRTRETA
B5: YDR464W 568-581 (peptide)
chain: TEVPSKPKKPSKTE
B6: YOR326W 1092-1105 (peptide)
chain: SVLPQTPLKDVMGG
B7: YPR115W 471-484 (peptide)
chain: TDPPPQPRRLSDIV
B8: YNL321W 116-129 (peptide)
chain: TATPSSPKRMHSSI
B9: YPL249C 293-306 (peptide)
chain: STSPKLPPRGKQRE
B10: YNR021W 264-277 (peptide)
chain: TDLPVNPPRDDKEW
B11: YDR538W 48-61 (peptide)
chain: STSPPRPKRIVVAI
B12: YDL029W 109-122 (peptide)
chain: TEPPMNPLKNREKM
B13: YDR059C 59-72 (peptide)
chain: TDYPFKPPKVNFTT
B14: YPR040W 50-63 (peptide)
chain: TAAPATPPRHISNN
B15: YMR192W 200-213 (peptide)
chain: STPPTLPPRRIEDP
B16: YDL197C 472-485 (peptide)
chain: TDSPQLPSKDKSQE
B17: YPR018W 481-494 (peptide)
chain: TDGPIDPFKEPKTS
B18: YHR164C 158-171 (peptide)
chain: SSTPIVPNRLKTVL
B19: YHR182W 758-771 (peptide)
chain: SSTPTTPERPKRKS

Target: T1, Boi1 SH3 (BOI1_YEAST), P38041
T1 chain: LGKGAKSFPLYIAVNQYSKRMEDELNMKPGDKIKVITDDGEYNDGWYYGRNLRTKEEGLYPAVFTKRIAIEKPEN
Experiment: SPOT array

| Binder | normalised SPOT signal, Boehringer light units (BLU); mean over the file's lines of this peptide |
| --- | --- |
| B1 | 17.1 |
| B2 | 54.7 |
| B3 | 1.9 |
| B4 | 311 |
| B5 | 361 |
| B6 | 100 |
| B7 | 69.1 |
| B8 | 50.9 |
| B9 | 5220 |
| B10 | 88.1 |
| B11 | 356 |
| B12 | 87.1 |
| B13 | 58.8 |
| B14 | 275 |
| B15 | 194 |
| B16 | 116 |
| B17 | 136 |
| B18 | 56.2 |
| B19 | 818 |

Target: T2, Boi2 SH3 (BOI2_YEAST), P39969
T2 chain: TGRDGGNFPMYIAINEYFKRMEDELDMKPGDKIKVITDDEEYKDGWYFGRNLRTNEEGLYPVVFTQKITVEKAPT
Experiment: SPOT array

| Binder | normalised SPOT signal, Boehringer light units (BLU); mean over the file's lines of this peptide |
| --- | --- |
| B1 | 111 |
| B2 | 89.1 |
| B3 | 56.4 |
| B4 | 43.5 |
| B5 | 39.9 |
| B6 | 10.3 |
| B7 | 36 |
| B8 | 36.1 |
| B9 | 90.9 |
| B10 | 46.1 |
| B11 | 79.7 |
| B12 | 55.1 |
| B13 | 65.8 |
| B14 | 41.4 |
| B15 | 44.5 |
| B16 | -0 |
| B17 | 58.5 |
| B18 | 10.8 |
| B19 | 36.8 |

Target: T3, Rvs167 SH3 (RV167_YEAST), P39743
T3 chain: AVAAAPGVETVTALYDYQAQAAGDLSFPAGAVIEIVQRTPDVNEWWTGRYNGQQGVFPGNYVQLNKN
Experiment: SPOT array

| Binder | normalised SPOT signal, Boehringer light units (BLU); mean over the file's lines of this peptide |
| --- | --- |
| B1 | 65.4 |
| B2 | 43.3 |
| B3 | 21.5 |
| B4 | 74.7 |
| B5 | 75.4 |
| B6 | 44.5 |
| B7 | 122 |
| B8 | 81.7 |
| B9 | 57900 |
| B10 | 56.5 |
| B11 | 182 |
| B12 | 147 |
| B13 | 93.6 |
| B14 | 13200 |
| B15 | 24400 |
| B16 | 95.6 |
| B17 | 33.8 |
| B18 | 1490 |
| B19 | 579 |

Target: T4, Yfr024 SH3 (LSB3_YEAST), P43603
T4 chain: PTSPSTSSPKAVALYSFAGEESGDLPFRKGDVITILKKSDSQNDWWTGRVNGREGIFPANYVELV
Experiment: SPOT array

| Binder | normalised SPOT signal, Boehringer light units (BLU); mean over the file's lines of this peptide |
| --- | --- |
| B1 | 440 |
| B2 | 374 |
| B3 | 395 |
| B4 | 4030 |
| B5 | 3310 |
| B6 | 179 |
| B7 | 5490 |
| B8 | 534 |
| B9 | 20400 |
| B10 | 94.9 |
| B11 | 3980 |
| B12 | 648 |
| B13 | 570 |
| B14 | 30400 |
| B15 | 27500 |
| B16 | 4380 |
| B17 | 0 |
| B18 | 6570 |
| B19 | 58100 |

Target: T5, Yhr016c SH3 (YSC84_YEAST), P32793
T5 chain: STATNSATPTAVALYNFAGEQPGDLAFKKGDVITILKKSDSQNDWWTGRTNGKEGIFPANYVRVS
Experiment: SPOT array

| Binder | normalised SPOT signal, Boehringer light units (BLU); mean over the file's lines of this peptide |
| --- | --- |
| B1 | 215 |
| B2 | 116 |
| B3 | 319 |
| B4 | 37.5 |
| B5 | 67.2 |
| B6 | 127 |
| B7 | 1780 |
| B8 | 244 |
| B9 | 72500 |
| B10 | 119 |
| B11 | 1340 |
| B12 | 125 |
| B13 | 232 |
| B14 | 58900 |
| B15 | 49300 |
| B16 | 95.8 |
| B17 | 0 |
| B18 | 1960 |
| B19 | 31700 |
